Patent publication US11319341B2, “Immune-stimulating soluble doxorubicin-conjugated complex” (Yafei (Shanghai) Biopharmaceutical Co., Ltd., priority 2016, dated 2022)
Residues, ends and D or L forms follow the SMILES beside them. *: point of attachment. Doxorubicin(3'-N) = COc1cccc2c1C(=O)c1c(O)c3c(c(O)c1C2=O)C[C@@](O)(C(=O)CO)C[C@@H]3O[C@H]1C[C@H](N*)[C@H](O)[C@H](C)O1; Hexanoyl(6-maleimido) = O=C1C=CC(=O)N1CCCCCC(=O)*

test: Water solubility of freeze-dried compounds in water (observation and HPLC)

SMILES	solubility [µg/mL]
COc1cccc2c1C(=O)c1c(O)c3c(c(O)c1C2=O)C[C@@](O)(C(=O)CO)C[C@@H]3O[C@H]1C[C@H](NC(=O)[C@H](CC(C)C)NC(=O)[C@H](CC(N)=O)NC(=O)[C@H](C)NC(=O)[C@H](C)NC(=O)[C@H](Cc2ccc(O)cc2)NC(=O)CCCCCN2C(=O)C=CC2=O)[C@H](O)[C@H](C)O1 [QHL-132] ({Hexanoyl(6-maleimido)}-YAANL-{Doxorubicin(3'-N)})	> 2000
COc1cccc2c1C(=O)c1c(O)c3c(c(O)c1C2=O)C[C@@](O)(C(=O)CO)C[C@@H]3O[C@H]1C[C@H](NC(=O)[C@H](CC(C)C)NC(=O)[C@H](CC(N)=O)NC(=O)[C@H](C)NC(=O)[C@H](C)NC(=O)[C@H](CC(N)=O)NC(=O)CCCCCN2C(=O)C=CC2=O)[C@H](O)[C@H](C)O1 [QHL-133] ({Hexanoyl(6-maleimido)}-NAANL-{Doxorubicin(3'-N)})	> 2000
COc1cccc2c1C(=O)c1c(O)c3c(c(O)c1C2=O)C[C@@](O)(C(=O)CO)C[C@@H]3O[C@H]1C[C@H](NC(=O)[C@H](CC(C)C)NC(=O)[C@H](CC(N)=O)NC(=O)[C@H](C)NC(=O)[C@H](C)NC(=O)[C@H](CCC(N)=O)NC(=O)CCCCCN2C(=O)C=CC2=O)[C@H](O)[C@H](C)O1 [QHL-134] ({Hexanoyl(6-maleimido)}-QAANL-{Doxorubicin(3'-N)})	> 5000
COc1cccc2c1C(=O)c1c(O)c3c(c(O)c1C2=O)C[C@@](O)(C(=O)CO)C[C@@H]3O[C@H]1C[C@H](NC(=O)[C@H](CC(C)C)NC(=O)[C@H](CC(N)=O)NC(=O)[C@H](C)NC(=O)[C@H](C)NC(=O)[C@H](CCCCN)NC(=O)CCCCCN2C(=O)C=CC2=O)[C@H](O)[C@H](C)O1 [QHL-135] ({Hexanoyl(6-maleimido)}-KAANL-{Doxorubicin(3'-N)})	> 5000
COc1cccc2c1C(=O)c1c(O)c3c(c(O)c1C2=O)C[C@@](O)(C(=O)CO)C[C@@H]3O[C@H]1C[C@H](NC(=O)[C@H](CC(C)C)NC(=O)[C@H](CC(N)=O)NC(=O)[C@H](C)NC(=O)[C@H](C)NC(=O)[C@H](CCCNC(=N)N)NC(=O)CCCCCN2C(=O)C=CC2=O)[C@H](O)[C@H](C)O1 [QHL-136] ({Hexanoyl(6-maleimido)}-RAANL-{Doxorubicin(3'-N)})	> 2000
COc1cccc2c1C(=O)c1c(O)c3c(c(O)c1C2=O)C[C@@](O)(C(=O)CO)C[C@@H]3O[C@H]1C[C@H](NC(=O)[C@H](CC(C)C)NC(=O)[C@H](CC(N)=O)NC(=O)[C@H](C)NC(=O)[C@H](C)NC(=O)[C@H](Cc2c[nH]cn2)NC(=O)CCCCCN2C(=O)C=CC2=O)[C@H](O)[C@H](C)O1 [QHL-137] ({Hexanoyl(6-maleimido)}-HAANL-{Doxorubicin(3'-N)})	> 5000
